The data set is described as follows: label from the status in PepcDB records.

Turning to “MPLVHRSALPALCLSLILPWTFSVQAADPAPETKTPEEQPAQRQPLPERSQKDAAALERQLPALEQQQLQAGGDTFLALWKPANTSDPKGVVIILPGAGETADWPQAIAPLRNKLPDTEWASLSLTLPDMLSEAAQPRVVEAAPVPTDKANTAKDASTEAKPIEQVAGGEADVADRVVAESTEEQIKADAERIFTRVDAALAFAEQQNARSIVLLGHGTGAYWAARYLSEKQPAQVQKLVMVAAQSPANGKPQLAEITPTLKLATADFFYVDKPLAQKAALERLQASKRLKHSNFSQIPLKALPGNNTAQQEQLFRRVRGWLNPQNTDS”, the protein production result is reported as “not failed”.

For the sequence “MPMGSLQPLATLYLLGMLVASCLGRLSWYDPDFQARLTRSNSKCQGQLEVYLKDGWHMVCSQSWGRSSKQWEDPSQASKVCQRLNCGVPLSLGPFLVTYTPQSSIICYGQLGSFSNCSHSRNDMCHSLGLTCLEPQKTTPPTTRPPPTTTPEPTAPPRLQLVAQSGGQHCAGVVEFYSGSLGGTISYEAQDKTQDLENFLCNNLQCGSFLKHLPETEAGRAQDPGEPREHQPLPIQWKIQNSSCTSLEHCFRKIKPQKSGRVLALLCSGFQPKVQSRLVGGSSICEGTVEVRQGAQWAALCDSSSARSSLRWEEVCREQQCGSVNSYRVLDAGDPTSRGLFCPHQKLSQCHELWERNSYCKKVFVTCQDPNPAGLAAGTVASIILALVLLVVLLVVCGPLAYKKLVKKFRQKKQRQWIGPTGMNQNMSFHRNHTATVRSHAENPTASHVDNEYSQPPRNSRLSAYPALEGVLHRSSMQPDNSSDSDYDLHGAQRL”, the protein production entry is “failed”.

Consider “MPMNISNTKERILAVAEALIQKDGYNAFSFKDIATAINIKTASIHYHFPSKEDLGVAVISWHTDKIAAVLSDISNNSSLSAKEKIQKFFDAILTLTYNSENKMCLGGMFASDFQSLPVSIQNQAKKFFELIIEWLKGVLETNGYDNESSLSLAKQIISLVEGGLLLARLYGDETFLEGVRHFIDQTIK”, for which the protein production result is reported as “not failed”.

Consider “MPMPMACWCRRSRCRWMAPADRSDRKPEGDAVTLKRWLSGGVLMVASLVATTHAAELPAGMQQFDVQMERVRKQFDVPGIAVAIVKDGQVVLERGYGVRETGKPAPVQADTLFAIASNTKAFTAASLSILADEGKLSLEDKVIDHLPWFRMSDPYVGGEMRIRDLLAHRSGLSLGAGDLLFWPTTSYTTEEVVQRLAKVPLKGGFRDRYAYDNILYAVAQKVIEQVSGQSYEAFLQQRIFAPVGMRGTRFNADHLQAGDHAAVGHAKYDFTELRTVAPLTWSNNSGAGGIYSSAHDMALWMNVQLAGGILPDGKPLFSAKRQHEMWSMITPIPIGEVQLPEFAAARPNFAGYGEGWSLSDYRGHRMVWHTGGWPGMVSRLTLLPDQKLGVVVLTNQEVGAAFNAVTFQVLDAFLRVPPTDWTAAYAKLVEKADSDADASWKKHQDARAARSTPSLPLRSYAATYRDPWYGDVVIVQDGKRLRLQFAKTAQLVGTLEHWQHDSFIVRWDDRSLNADAFVNFLLTPDGAVREMRMEPISPLTDFSFDFQDLVLTPVPTETAAGK”, for which the protein production entry is given as “failed”.

For the sequence “MPMPSVRHDEHRPLSPAATLIGPARALEAVLAPGPGPGRPPGLPRPAPGTRRAMKWQQVQEGPSAVYVVVLDQGEDAVAELTAFARERSLGASQVTAVGAFSQAVVGWFDRQAKDYRHIPVREQCEVLSLIGDIAVADDGPTPHLHAVLGLSDGSTRGGHLLSGRVWPTLEVVVRDSPAELAKIHRPDIGLALIDPG”, the protein production result is “failed”.

In the case of “MPMWLQALMWGTLAGGALVLGAGIAWMWKVPPKIVSTVMAFGAGVLISALAFELVDEAVEGGGLLPTVLGFLLGALIFVGSNALLARAGAKHRKRSGGSQPSEKDSPGSGTAIAVGALIDGIPESVVLGVGLLAGGAVSPAMLAAVLISNVPEGLSSTAGMKKAGRSPAYVFGTWIGIAVFSGLAALLGYTALENAPETVIAFITAIAAGGILAMLADTMIPEAFEEHHNLTGLTAAVGFLSAFTIHHVGG”, the protein production result is “failed”.

For “MPMYQETSEPSLQALESRQDDILKRLYELKAAVDGLSKMIHTPDADLDVTNILQADEPTTLATNTLDLNSVLGKDYGALKDIVINANPASPPLSLLVLHRLLCERYRVLSTVHTHSSVKNVPENLVKCFGEQARKQSRHEYQLGFTLIWKNVPKTQMKFSVQTMCPIEGEGNIARFLFSLFGQKHNAVTLTLIDSWVDIAMFQLREGSSKEKAAVFRSMNSALGRSPWLVGNELTVADVVLWSVLQQTGGSSGAAPTNVQRWLKSCENLAPFSTALQLLK”, the protein production result was “failed”.

Consider “MPNFSKNEEVLFSAVNEIFEEKIPFNKIIGLKVRFISPEQVKLSFEMRDELIGNAIRRMLYGGVISSAIDMTAGLAAFMGFQEKMSGKPMEEKLAMIGRLSTMSLHVEYLRPGLGREFVCTGYNVRTGNKVAVIRTELMNDQDELIAVGSVSYILV”, for which the protein production result is on record as “not failed”.

For the sequence “MPNQPVTVESFMPVEGKLREKVIVKGSNFGTDKSKVKVYFVDEAAERLSTVIGIDNNTLYCLAPRQLPGGNRIKVIVDGKEVTTDGTFKYEQAQNVSTISGSASKDGNDDGDLASAKFKYMWGIAAVGNNTVLAYQRDDPRVRLISVDDNKVTTVHPGFKGGKPAVTKDKQRVYSIGWEGTHTVYVYMKASGWAPTRIGQLGSTFSGKIGAVALDETEEWLYFVDSNKNFGRFNVKTQEVTLIKQLELSGSLGTNPGPYLIYYFVDSNFYMSDQNLSSVYKITPDGECEWFCGSATQKTVQDGLREEALFAQPNGMTVDEDGNFYIVDGFKGYCLRKLDILDGYVSTVAGQVDVASQIDGTPLEATFNYPYDICYDGEGGYWIAEAWGKAIRKYAVELEHHHHHH”, the protein production entry is on record as “not failed”.

As for “MPNSRPRPRRGAGGGAGAAGRDRLVARSLQSAEHCLGDQDFGTAYAHYLLVLSLAPELKDDVKETFQYTLFKWAEELHALSRIQDLLGCYEQALELFPDDEVICNSMGEHLFRMGFRDEAAGYFHKAVKLNPDFNDAKENFYRVANWLVERWHFIMLNDTRRNMVYNAAIQKAVCLGSRTVLDIGTGTGILSMFAKKAGAQSVYACELSKTMYELACDVVAANKMENGIKLLHMKSLDIEIPKHIPERVSLVVTETVDAGVFGEGIVESLIHAWEHLLLQPKTKEENGNCGKYGKVIPAGAVIFGMAVECAEIRRHHRVGAKDIAGIHLPTNVKFQSPAYTSVDTEETVEPYTTEKMSGIPGGYLPLTECFQIMKVDFNNLQELKSLATKKPHSLNVPAIKEGVLDAIMVWFVLQLDDEYSLSTSPSEETCWEQAVYPVQALEDYCIQPGDRVTMEASCHDCYLRIQGISILHLEHEMEVMKGFTKSKDLLSLGNEAELCSALANLQTSRPEALEQTCMLEPTEIALLNNIPYHEGFKTAMRKVLSSLAPELLWQPMDTHCQYMEMNSGSGQSDAAPSTADPFYVLDVSEGFSLLPILAGTLGHVKPYSSVEKDQHCIALDLIAEANHFPKETLEFWLRHIEDEAAVLQRPKSDKLWSIIILDVIEPSGLIQQELMEKAAISRCLLQSGGKIFPQYVLMFGMLVESQTLVEESAVQGTEHTLGLNIAPFINQFQVPIRVCLDLSSLPCVPLSQPVELLRLDLMTPYLNTSNKEVKVRVCRSGRVTAVPFWFHLCLDDEVRLDTSGEASHWKQAAVVLDNPIQVQAGEELVLSVEHHKSNVSIAVKP”, the protein production entry is recorded as “failed”.

As to “MPNTNPVAAWKALKEGNERFVAGRPQHPSQSVDHRAGLAAGQKPTAVIFGCADSRVAAEIIFDQGLGDMFVVRTAGHVIDSAVLGSIEYAVTVLNVPLIVVLGHDSCGAVNAALAAINDGTLPGGYVRDVVERVAPSVLLGRRDGLSRVDEFEQRHVHETVAILMARSSAISERIAGGSLAIVGVTYQLDDGRAVLRDHIGNIGEEV”, the protein production entry was “not failed”.

Consider “MPNTPWSATSQNLGQDFHNWSGGLRFRPSRLDVPEDEETVAALVRAAARQGRSIRPVGSAHSSSEIYVTDDILVSMAGICGLREHDAQHHRATVGAGSQLTELSKELQAAGMTLSNFGDVATQTVGGAIGTGTHGSGRDFPNLSMMLVGGRLVTAGGEIRTFDVEEEPDFVRALRVSFGTLGILTWTTLKLEPLHDLHRQEWCLAFEPCMEVLDKLSRENRNFDFYWYPRSDEVKIRCLNPPGEEKDYGAFARLAKDETGPPHEVIPQHSDLPHRFEEMEYSMPAEAGPECLGKLRARIKERWRRSVGWRLLFRYIKADDSWLSEAYGRDSVSISLHQNATLPYWDFFLDLEPIMRDHGGRPHWAKKHSLRAAELRPLYPMWDRFLALRQEMDPGGRFLTRYLRGLLGC”, for which the protein production result is “failed”.

On to “MPPLCRRQSGVPSGRRARHSGGMRLLVLGGTEFVGRSVVEAALGRGWEVTVLHRGRHAPPPGVRALHGDRTAPDGLTALTGAEDTWDAVVDTWSAAPRAVRDAARLLRQRAGRYVYVSSCSVYAWAPPAGYAEDAPLVEGASADAGQRDYARDKRGAELAVLDAFGADRSVLVRAGLILGPYENVGRLPWWLNRLARGGPVLAPGPRDLPLQYIDVRDLADWVLGAVERELSGPYNLVSPPGHTTMGGLLEACATVTGGTAELRWTSPETVLAAGIEPWVQLPVWTPPGSDLHDALHTADVSRALATGLVCRPARDTAAGTWTWLRDLGGTAPQRPDRPPVGLDPETEAKVLAADGPGGGVSDTTP”, for which the protein production entry is recorded as “failed”.

Consider “MPPMLSGLLARLVKLLLGRHGSALHWRAAGAATVLLVIVLLAGSYLAVLAERGAPGAQLITYPRALWWSVETATTVGYGDLYPVTLWGRLVAVVVMVAGITSFGLVTAALATWFVGREQERRGHFVRHSEKAAEEAYTRTTRALHERFDRLERMLDDNRR”, for which the protein production result is “failed”.

Take “MPPPAMLAFDDGLARKSNDNEWQGFRVFPGENTNPNPNINFLVKKAILQNEKSITPLFSRSSARDDSFRIVLPPALPPPRDSTVPLPMLPEPMRVRKKLSHQESVIFMSKSRFAEKILYKEEDFKCNAFCLSLPGFGKNKLIRSSSKRQNSMEKKMIRASSFTGSTVSVRASLEKFECGSWASTTALIQDNGRLFFDFPVEMTKCNSRGGNGGRDVQEPVTSGFLFDRETETLALRSVLKTRSTRDHRRSAESSPQRRVRFSTSSSSASVSCPTSPRTCITPRLRKARDDFNTFLTAQNA”: the protein production result is listed as “failed”.

Regarding “MPPVWTLPRLYQHFQGAIDLELWTIPYYLTVLYSIKDPTTVPYRLIQAAVYQEMLHAQLVSNIANAYGYSPTLSAPEYVGTAVPHIDFDLDTPNPTSIFTPYSAELGPLDLTRVNTMCLIEYPEWRTQREPDLADDVTDYGSIGEFYDALRVGMEQLRGHVRGNQKQMDEFGPFYQNSPPLTVTESGDAGFLQALTLVDIIVDQGEGQTQPVETIPTEFQNTADGFQDAWPHFQRFDFIRRMPNWPGVYTGVTDPPAGSPGAEAQARLIADFAGFLDILNGMFSGGGAPPAFGVQMAKLGGDILSCWKLGAVPRYS”, the protein production result is “not failed”.

For the sequence “MPQDTTNPSTGTAEQRTATDTTVQLRAGWQGRFYEDFAVGDVYKHPYGRTVTETDNVWFTNLTMNANPMHFNAAYASGTEFDERLVNGLFVIALSVGMSVVDVSANATANLGYDDIQHHAPVFHGDTLFAESEVLSKRESESRPHVGMVTTELRTYTQDGELVLSLERTPMVRKRGAADPSAARPPGWPAGVGTQPDAERTVPDGESR”, the protein production result is listed as “failed”.

“MPQITLVFISLSGNTLSFVKRLSLYLADNYDYHVKQINIKDLKHETFPVKEEFVAILPTYLEGGNGVDSGDVEILTTPLGEFIAAHGNAQRCLGIIGSGNKNFNHQYCLTAKQYAKRFGFPLLGDFELRGTPDDISRLAQVIMEASSRHSSNDTQTL”: the protein production entry is “failed”.

These data come from a protein production outcome set (Wang et al. 2014).
